From US20150239980A1 (NEOTOPE BOSCIENCES, published 2015)

T1: recombinant hMCAM-His (human, UniProt P43121 24-559)
T1 construct: not shown: His tag
T1 chain: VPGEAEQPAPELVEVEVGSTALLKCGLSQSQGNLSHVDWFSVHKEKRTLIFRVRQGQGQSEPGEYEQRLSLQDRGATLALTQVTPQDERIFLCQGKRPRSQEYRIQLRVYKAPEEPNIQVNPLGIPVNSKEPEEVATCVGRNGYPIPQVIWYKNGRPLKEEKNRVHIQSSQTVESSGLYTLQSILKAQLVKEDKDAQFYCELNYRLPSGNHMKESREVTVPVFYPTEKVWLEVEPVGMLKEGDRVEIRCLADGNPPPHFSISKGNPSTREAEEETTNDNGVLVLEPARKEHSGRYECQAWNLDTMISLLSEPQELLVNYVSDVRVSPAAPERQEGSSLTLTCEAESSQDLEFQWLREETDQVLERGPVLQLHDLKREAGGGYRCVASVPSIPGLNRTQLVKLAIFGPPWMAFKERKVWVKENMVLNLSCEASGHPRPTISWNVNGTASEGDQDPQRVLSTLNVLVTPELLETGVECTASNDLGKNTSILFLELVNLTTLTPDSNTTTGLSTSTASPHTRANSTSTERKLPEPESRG

T2: human MCAM (melanoma cell adhesion molecule) expressed on transfected CHO cells (human, UniProt P43121 24-646)
T2 construct: also called hMCAM; CD146
T2 chain: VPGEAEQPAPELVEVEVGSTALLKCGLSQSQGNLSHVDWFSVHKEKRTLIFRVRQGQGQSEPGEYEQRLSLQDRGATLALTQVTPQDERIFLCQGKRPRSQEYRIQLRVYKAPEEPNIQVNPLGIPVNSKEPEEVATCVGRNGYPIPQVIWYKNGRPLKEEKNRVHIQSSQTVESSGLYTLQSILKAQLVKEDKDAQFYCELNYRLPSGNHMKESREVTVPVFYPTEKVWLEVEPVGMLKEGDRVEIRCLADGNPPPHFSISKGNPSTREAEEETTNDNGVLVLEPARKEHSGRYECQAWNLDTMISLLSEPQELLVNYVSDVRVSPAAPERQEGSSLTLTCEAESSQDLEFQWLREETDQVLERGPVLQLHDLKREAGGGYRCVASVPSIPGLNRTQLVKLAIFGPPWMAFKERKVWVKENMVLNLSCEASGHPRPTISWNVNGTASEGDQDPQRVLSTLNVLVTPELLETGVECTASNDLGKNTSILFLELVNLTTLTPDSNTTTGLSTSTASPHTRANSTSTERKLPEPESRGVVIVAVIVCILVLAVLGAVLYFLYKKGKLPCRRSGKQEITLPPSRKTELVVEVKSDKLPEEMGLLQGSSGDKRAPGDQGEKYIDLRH

T3: Ig2 domain (mouse, UniProt Q8R2Y2)
T3 construct: isolated domain 2; also called Murine MCAM domain 2 (Ig2) with human IgG Fc tag
T3 sequence (Fc fusion chain, looked up): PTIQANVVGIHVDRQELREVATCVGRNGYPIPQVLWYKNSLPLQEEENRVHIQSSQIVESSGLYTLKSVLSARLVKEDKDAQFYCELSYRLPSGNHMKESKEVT

T4: murine MCAM-Fc fusion protein (mouse, UniProt Q8R2Y2 24-563)
T4 construct: extracellular domain; produced in CHO cells; also called mouse MCAM-Fc; mouse MCAMhFc; not shown: fused to human IgG
T4 sequence (looked up): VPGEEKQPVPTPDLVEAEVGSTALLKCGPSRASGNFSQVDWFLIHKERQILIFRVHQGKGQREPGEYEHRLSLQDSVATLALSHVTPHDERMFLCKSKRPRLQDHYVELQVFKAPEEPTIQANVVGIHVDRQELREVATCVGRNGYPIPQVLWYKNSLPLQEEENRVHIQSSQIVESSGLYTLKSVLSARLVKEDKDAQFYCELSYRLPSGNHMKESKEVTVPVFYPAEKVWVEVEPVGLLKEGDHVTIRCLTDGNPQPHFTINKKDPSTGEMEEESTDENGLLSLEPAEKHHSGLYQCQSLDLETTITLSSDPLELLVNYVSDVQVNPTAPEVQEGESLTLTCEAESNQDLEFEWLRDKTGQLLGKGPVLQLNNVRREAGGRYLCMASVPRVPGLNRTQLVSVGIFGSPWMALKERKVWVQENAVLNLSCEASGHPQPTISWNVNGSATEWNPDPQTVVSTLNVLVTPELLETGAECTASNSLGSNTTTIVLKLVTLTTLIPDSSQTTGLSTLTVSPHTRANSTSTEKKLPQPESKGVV

T5: mouse MCAM expressed on transfected CHO cells (mouse, UniProt Q8R2Y2 24-648)
T5 construct: whole, on cells; also called murine MCAM
T5 sequence (looked up): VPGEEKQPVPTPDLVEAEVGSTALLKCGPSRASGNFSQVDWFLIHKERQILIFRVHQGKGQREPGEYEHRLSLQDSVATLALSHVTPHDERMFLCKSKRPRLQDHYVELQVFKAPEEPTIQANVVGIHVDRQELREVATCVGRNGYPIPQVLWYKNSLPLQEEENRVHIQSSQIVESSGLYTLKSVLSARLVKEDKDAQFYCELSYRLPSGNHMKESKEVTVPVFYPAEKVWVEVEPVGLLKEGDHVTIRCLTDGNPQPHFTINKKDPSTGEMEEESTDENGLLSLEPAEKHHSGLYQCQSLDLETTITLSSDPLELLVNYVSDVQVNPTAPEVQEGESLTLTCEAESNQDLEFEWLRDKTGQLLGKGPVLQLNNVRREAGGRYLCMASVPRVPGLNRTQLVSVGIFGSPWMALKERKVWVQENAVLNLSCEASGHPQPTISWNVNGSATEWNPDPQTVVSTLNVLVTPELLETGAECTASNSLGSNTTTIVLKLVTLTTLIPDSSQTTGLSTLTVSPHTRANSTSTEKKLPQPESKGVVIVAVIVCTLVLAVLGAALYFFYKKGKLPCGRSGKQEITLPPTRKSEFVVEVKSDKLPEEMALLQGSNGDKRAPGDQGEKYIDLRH


How the values were obtained:
recombinant hMCAM-His [1] = target: T1, recombinant hMCAM-His; assay: competitive ELISA on hMCAM-His, competitor biotinylated rodent or chimeric 2120; Expt. #1; vs rodent 2120
Procedure: (§1) ELISA plates were coated with recombinant hMCAM-His, and blocked with casein buffer to prevent non-specific binding. Biotinylated rodent or chimeric antibody was added at a subsaturating concentration, in the presence or absence of 3× increasing concentrations of unlabeled competitor (humanized antibody, rodent, or chimeric). After washing to remove unbound antibody, streptavidin HRP was added to allow detection of the biotinylated antibody. The ELISA was developed with TMB substrate and the OD450 was measured. The IC50 of the unlabeled competitor was determined using the GraphPad Prism5 software.

[2] = target: T2, human MCAM (melanoma cell adhesion …); assay: laminin/FACS on hMCAM CHO cells, competitor laminin 411; Expt#2; vs rodent 2120
Procedure: (§2) Following incubation for 30-45 minutes, the cells were washed and anti-laminin conjugated to AF650 (NovusBio) was added to detect the bound laminin. The cells were run on a flow cytometer to measure the laminin binding signal.

recombinant hMCAM-His [3] = target: T1, recombinant hMCAM-His; assay: competitive ELISA on hMCAM-His, competitor biotinylated rodent or chimeric 2120; vs rodent 2120
Procedure: as §1

recombinant hMCAM-His [4] = target: T1, recombinant hMCAM-His; assay: competitive ELISA on hMCAM-His, competitor biotinylated rodent or chimeric 2120; Expt. #2; vs rodent 2120
Procedure: as §1

[5] = target: T2, human MCAM (melanoma cell adhesion …); assay: laminin/FACS on hMCAM CHO cells, competitor laminin 411; Expt#1; vs rodent 2120
Procedure: as §2

recombinant hMCAM-His [6] = target: T1, recombinant hMCAM-His; assay: ForteBio Octet Red, hMCAM-His analyte; Forte column 2; vs rodent 2120
Procedure: (§3) The affinities were measured using the ForteBio Octet Red. Anti-human Fc sensors were used to capture the humanized antibodies, and several concentrations of hMCAMHis analyte were used to determine the affinity using a 1:1 fitting model.

recombinant hMCAM-His [7] = target: T1, recombinant hMCAM-His; assay: summary of ForteBio, hMCAM-His; vs rodent 2120
Procedure: as §3

recombinant hMCAM-His [8] = target: T1, recombinant hMCAM-His; assay: ForteBio Octet Red, hMCAM-His analyte; Forte column 1; vs rodent 2120
Procedure: as §3

recombinant hMCAM-His [9] = target: T1, recombinant hMCAM-His; assay: ForteBio Octet Red, hMCAM-His analyte; Expt. #2; vs rodent 2120
Procedure: as §3

recombinant hMCAM-His [10] = target: T1, recombinant hMCAM-His; assay: ForteBio Octet Red, hMCAM-His analyte; Expt. #1; vs rodent 2120
Procedure: as §3

Ig2 domain = target: T3, Ig2 domain; assay: ForteBio Octet Red, anti-human IgG Fc (AHC) biosensors loaded with mouse MCAM-hFc proteins (5 ug/ml), dipped into antibody (5 ug/ml) or SP2 media
Source text: (§4) The following protocol was used: ForteBio Domain Mapping Protocol. ForteBio anti-human IgG Fc biosensors were used to immobilize various mouse MCAMhFc domains including full length mouse MCAMhFc protein on to biosensor surface. These sensors were dipped into either clone 15 or 17 MCAM specific antibody for detection of binding to these domains or full length protein. After loading these samples into a black 96 well plate, the Octet Red was programmed as follows: 60 seconds for baseline #1; 180 seconds for loading various domains; 60 seconds for baseline #2; 180 seconds for association of antibody to domain; and 240 seconds for dissociation of antibody from domain.
(§5) 1. Mouse MCAMhFc final concentration @ 5 ug/ml [0466] 2. Antibody clone 15 or 17 @ 5 ug/ml [0467] 3. ForteBio anti-human IgG Fc Capture (AHC) biosensors for kinetics experiments, cat#18-5060 [0468] 4. […] 5. ForteBio Octet Red machine [0470] 6. Fresh tissue culture medium, DMEM with 20% FCS, was used as buffer for dilution
(§6) For FIGS. 10A-B, clones 15 and 17 were tested against the following protein samples (all have human IgG Fc tag): Murine MCAM; Human Fc full length protein; Murine MCAM domain 1 (Ig1); Murine MCAM domain 2 (Ig2); and Murine MCAM domain 1 and 2 (Ig1-2A).

[11] = target: T4, murine MCAM-Fc fusion protein; assay: as above
Source text: as §4, §5, §6

[12] = target: T5, mouse MCAM expressed on transfected CHO …; assay: flow cytometry, mouse MCAM transfected cells mixed with CFSE-labelled untransfected cells
Procedure: For the generation of antibodies capable of binding to murine MCAM, MCAM-Fc was generated by fusing the extracellular domain of murine MCAM to human IgG and produced in CHO cells using standard techniques. Lou/M rats were immunized with 100 μg of MCAM-Fc protein in CFA (1:1 volume). Rats were boosted two times at two week intervals with MCAM-Fc protein in incomplete Freund's adjuvant (IFA) (1:1 volume). Hybridomas were generated from immunized rats using standard protocols and clones were selected by Clonepix. CHO cells were transfected with the full length murine MCAM gene and selected for stable expression using neomycin and standard techniques. Parental CHO cells (MCAM negative) were fluorescently labeled with carboxyfluorescein succinimidyl ester (CFSE) using standard techniques and mixed at a 1:1 ratio with unlabeled MCAM transfected CHO cells. Hybridoma supernatants were incubated with this mixture of cells for 30 minutes and binding of potential MCAM specific antibodies was detected with a fluorescently labeled anti-rat secondary antibody (Jackson Immuno) by flow cytometry.

fold over rodent (competitive ELISA) (recombinant hMCAM-His [1]) [fold] | fold over rodent (blocking, laminin/FACS) [2] [fold] | fold over rodent (competitive ELISA) (recombinant hMCAM-His [3]) [fold] | fold over rodent (competitive ELISA) (recombinant hMCAM-His [4]) [fold] | fold over rodent (blocking, laminin/FACS) [5] [fold] | fold over rodent (Forte affinity) (recombinant hMCAM-His [6]) [fold] | fold reduction in affinity as measured by ForteBio (recombinant hMCAM-His [7]) [fold] | fold over rodent (Forte affinity) (recombinant hMCAM-His [8]) [fold] | fold over rodent (Forte affinity) (recombinant hMCAM-His [9]) [fold] | fold over rodent (Forte affinity) (recombinant hMCAM-His [10]) [fold] | binding result (Ig2 domain) | binding result [11] | binding result [12] | Binder
2.23 | 2.8 | 1.8 | 2.42 | 1.7 | 5.8 | > 5 | 5.9 | 6.21 | 5.64 | – | – | – | h2120_VH1 + h2120_VL3 (antibody, human IgG1, V domains shown) VH: QVTLKESGPVLVKPTETLTLTCTVSGFSLTSNGVSWVRQPPGKALEWIAAISSGGTTYYNSAFKSRLTISRDTSKSQVVLTMTNMDPVDTATYYCARRYGYGWYFDFWGQGTLVTVSS VL: DIQMTQSPSSLSASVGDRVTINCKASQNIYNSLAWYQQKPGKAPKVLIFNANSLQTGIPSRFSGSGSGTDFTLTISSLQPEDFATYYCQQFYSGYTFGQGTKLEIK
1.93 | – | – | 2.62 | – | – | > 5 | – | 6.43 | 6.57 | – | – | – | h2120_VH2 + h2120_VL3 (antibody, human IgG1, V domains shown) VH: QVTLKESGPVLVKPTETLTLTCTVSGFSLTSNGVSWVRQPPGKALEWIAAISSGGTTYYNSAFKSRLSISRDTSKSQVVLTMTNMDPVDTATYYCARRYGYGWYFDFWGQGTLVTVSS VL: DIQMTQSPSSLSASVGDRVTINCKASQNIYNSLAWYQQKPGKAPKVLIFNANSLQTGIPSRFSGSGSGTDFTLTISSLQPEDFATYYCQQFYSGYTFGQGTKLEIK
– | – | – | – | – | – | – | – | – | – | no binding (tested: 5 ug/ml) | binds | binds | anti-MCAM monoclonal antibody clone 17 (antibody, V domains shown, rat monoclonal raised against murine MCAM-Fc; also called anti-MCAM clone 17) VH: EVQLVESGGGLVQPGRSLKLSCAASGFTFSNYYMAWVRQAPTKGLEWVASISFEGNRNHYGDSVKGRITISRDNAKSTLYLQMTSLRPEDTATYYCARHRGYSTNFYHDVLDAWGQGALVTVSS VL: DVQMTQSPSYLATSPGESVSISCKASKNIDTYLAWYQEKPGKTNKLLIYSGSTLQSGTPSRFSGSGSGTDFTLTIRNLESEDFAVYYCQQHNEYPLTFGSGTKLEIKR
